Drawing on publication PMC8803338, this text covers fold change of ACTN co-precipitated with ACTC1, α-MHC-cre DKO hearts against CTL hearts for 1 substance.

The target in the test is sarcomeric α-Actin (ACTC1) (mouse (endogenous in heart)) (UniProt P68033). The test can be described thus: co-IP; heart lysates of CTL and α-MHC-cre DKO mice, mouse anti-α-Actin, Protein A/G beads, Western blot, densitometry (n = 4).

Turning to “sarcomeric α-Actinin (ACTN) (from UniProt Q9JI91 1-894) (natural protein)”, the fold change of ACTN co-precipitated with ACTC1, α-MHC-cre DKO hearts against CTL hearts is 0.63 fold.
